# Measured values from patent US11872270B2, “A*03 restricted peptides for use in immunotherapy against cancers and related methods” (Immatics Biotechnologies GmbH, priority 2018, dated 2024).
# Target: HLA-A*03:01 (Homo sapiens, UniProt P04439)
# Test: MHC binding assay (UV-ligand exchange, β2m ELISA)
# Settings: binding to HLA-A*03:01, UV-ligand exchange, β2m ELISA
# Text: Candidate peptides for T cell based therapies according to the present invention were further tested for their MHC binding capacity (affinity). The individual peptide-MHC complexes were produced by UV-ligand exchange, where a UV-sensitive peptide is cleaved upon UV-irradiation and exchanged with the peptide of interest as analyzed. Only peptide candidates that can effectively bind and stabilize the peptide-receptive MHC molecules prevent dissociation of the MHC complexes. To determine the yield of the exchange reaction, an ELISA was performed based on the detection of the light chain (β2m) of stabilized MHC complexes. The assay was performed as generally described in Rodenko et al. (Rodenko et al., 2006) 96 well MAXISorp plates (NUNC) were coated over night with 2 ug/ml streptavidin in PBS at room temperature, washed 4× and blocked for 1 h at 37° C. in 2% BSA containing blocking buffer. Refolded HLA-A*02:01/MLA-001 monomers served as standards, covering the range of 15-500 ng/ml. Peptide-MHC monomers of the UV-exchange reaction were diluted 100-fold in blocking buffer. Samples were incubated for 1 h at 37° C., washed four times, incubated with 2 ug/ml HRP conjugated anti-β2m for 1 h at 37° C., washed again and detected with TMB solution that is stopped with […]. Absorption was measured at 450 nm. Candidate peptides that show a high exchange yield (preferably higher than 50%, most preferred higher than 75%) are generally preferred for a generation and production of antibodies or fragments thereof, and/or T cell receptors or fragments thereof, as they show sufficient avidity to the MHC molecules and prevent dissociation of the MHC complexes.
row,"Peptide exchange (MHC class I binding score, peptide exchange yield)",Substance
1,++ (>20% = ++),95 (FLGLAFHPK; listed as Homo sapiens) [compound 95]
2,+ (>10% = +),96 (RAVSVNPGK; listed as Homo sapiens) [compound 96]
3,++++ (>75% = ++++),97 (RVRALGSQY; listed as Homo sapiens) [compound 97]
4,++ (>20% = ++),98 (VSVAGSILAK; listed as Homo sapiens) [compound 98]
5,++++ (>75% = ++++),99 (RTYTCQVTY; listed as Homo sapiens) [compound 99]
6,+++ (>50 = +++),100 (TTNARILAR; listed as Homo sapiens) [compound 100]
7,+++ (>50 = +++),101 (HMDEFKRTQK; listed as Homo sapiens) [compound 101]
8,++++ (>75% = ++++),102 (RLLQHTPSAR; listed as Homo sapiens) [compound 102]
9,++++ (>75% = ++++),103 (SIYKKAVYR; listed as Homo sapiens) [compound 103]
10,++ (>20% = ++),104 (AVVQGLVEK; listed as Homo sapiens) [compound 104]
11,++ (>20% = ++),105 (QVLDLQSVK; listed as Homo sapiens) [compound 105]
12,++ (>20% = ++),106 (LLRSGLTLR; listed as Homo sapiens) [compound 106]
13,+++ (>50 = +++),107 (ILNLNKMVK; listed as Homo sapiens) [compound 107]
14,+++ (>50 = +++),109 (KLQNLPTLLY; listed as Homo sapiens) [compound 109]
15,++++ (>75% = ++++),110 (IIFIPATILLK; listed as Homo sapiens) [compound 110]
16,++++ (>75% = ++++),111 (ATSPPASVR; listed as Homo sapiens) [compound 111]
17,+++ (>50 = +++),112 (ASLAAAVLAK; listed as Homo sapiens) [compound 112]
18,+ (>10% = +),113 (VSIRNTLLY; listed as Homo sapiens) [compound 113]
19,++++ (>75% = ++++),114 (SLLTVSGAWAK; listed as Homo sapiens) [compound 114]
20,+++ (>50 = +++),115 (AILHPFRAK; listed as Homo sapiens) [compound 115]
21,++ (>20% = ++),117 (TVFVELWLK; listed as Homo sapiens) [compound 117]

row,"Peptide exchange (MHC class I binding score, peptide exchange yield)",Substance
1,+ (>10% = +),118 (SLRGSFPILY; listed as Homo sapiens) [compound 118]
2,++++ (>75% = ++++),119 (RMGFRTLSK; listed as Homo sapiens) [compound 119]
3,++ (>20% = ++),120 (TRMQKAGFLYY; listed as Homo sapiens) [compound 120]
4,++++ (>75% = ++++),122 (LIGPLLICK; listed as Homo sapiens) [compound 122]
5,+++ (>50 = +++),124 (VVYDTMIEK; listed as Homo sapiens) [compound 124]
6,++++ (>75% = ++++),125 (VVYDTMIEKF; listed as Homo sapiens) [compound 125]
7,++ (>20% = ++),127 (GLAAGALLLY; listed as Homo sapiens) [compound 127]
8,++++ (>75% = ++++),128 (KIKKPLSYR; listed as Homo sapiens) [compound 128]
9,+++ (>50 = +++),129 (ALARVSSVKL; listed as Homo sapiens) [compound 129]
10,++++ (>75% = ++++),131 (RVDSKQRYY; listed as Homo sapiens) [compound 131]
11,+++ (>50 = +++),132 (ASSFRPLLSK; listed as Homo sapiens) [compound 132]
12,+++ (>50 = +++),134 (SLLKPSGDYFK; listed as Homo sapiens) [compound 134]
13,++++ (>75% = ++++),136 (ALSRMSQQY; listed as Homo sapiens) [compound 136]
14,++++ (>75% = ++++),137 (TVYVAMCHKF; listed as Homo sapiens) [compound 137]
15,+++ (>50 = +++),138 (VSLSKMLKK; listed as Homo sapiens) [compound 138]
16,++++ (>75% = ++++),141 (RLRDYISSLK; listed as Homo sapiens) [compound 141]
17,+ (>10% = +),142 (SPRVYWLGLNDR; listed as Homo sapiens) [compound 142]
18,++++ (>75% = ++++),143 (KTLGKIAEK; listed as Homo sapiens) [compound 143]
19,++ (>20% = ++),144 (PLAMLAATCNK; listed as Homo sapiens) [compound 144]
20,++++ (>75% = ++++),145 (SLFEGIYTIK; listed as Homo sapiens) [compound 145]
21,++++ (>75% = ++++),146 (TLLSYELAFK; listed as Homo sapiens) [compound 146]

row,"Peptide exchange (MHC class I binding score, peptide exchange yield)",Substance
1,+++ (>50 = +++),147 (KLFMPRPK; listed as Homo sapiens) [compound 147]
2,+++ (>50 = +++),148 (RIGNKGIYK; listed as Homo sapiens) [compound 148]
3,+++ (>50 = +++),149 (TVFLSKYLKK; listed as Homo sapiens) [compound 149]
4,++ (>20% = ++),150 (LLLAAVTVK; listed as Homo sapiens) [compound 150]
5,+++ (>50 = +++),151 (KVASFTVIGY; listed as Homo sapiens) [compound 151]
6,+ (>10% = +),152 (KIICGVHYLY; listed as Homo sapiens) [compound 152]
7,+++ (>50 = +++),153 (LASSPAGHK; listed as Homo sapiens) [compound 153]
8,++ (>20% = ++),154 (TIASVLVAR; listed as Homo sapiens) [compound 154]
9,++ (>20% = ++),156 (VSLGIAVSK; listed as Homo sapiens) [compound 156]
10,++++ (>75% = ++++),158 (RALGVPFVPR; listed as Homo sapiens) [compound 158]
11,++++ (>75% = ++++),160 (RLLPGKVVWK; listed as Homo sapiens) [compound 160]
12,++ (>20% = ++),161 (MKTLPAMLGTGK; listed as Homo sapiens) [compound 161]
13,++++ (>75% = ++++),163 (MLYYPSVSR; listed as Homo sapiens) [compound 163]
14,++++ (>75% = ++++),164 (RLAQYTIER; listed as Homo sapiens) [compound 164]
15,+ (>10% = +),165 (AATIISSAK; listed as Homo sapiens) [compound 165]
16,++++ (>75% = ++++),168 (ATNGKVLKK; listed as Homo sapiens) [compound 168]
17,++++ (>75% = ++++),169 (ATNGKVLKKR; listed as Homo sapiens) [compound 169]
18,++++ (>75% = ++++),171 (ATIGLSVSK; listed as Homo sapiens) [compound 171]
19,+++ (>50 = +++),172 (SLLEADPFLK; listed as Homo sapiens) [compound 172]
20,+++ (>50 = +++),173 (VSYNRLIK; listed as Homo sapiens) [compound 173]
21,++++ (>75% = ++++),174 (KMMKRLMTVEK; listed as Homo sapiens) [compound 174]
